Laboratory results reported in article PMC9700832.

Key:
[1] = target: Bacillus thuringiensis serovar israelensis LexA (B. thuringiensis serovar israelensis); test: SPR; LexA immobilised on a CM5 chip (1200 to 1300 RU); analytes in three-fold dilutions (6-1458 nM), 180 s at 30 uL/min, 25 °C; 20 mM HEPES pH 7.4, 150 mM NaCl, 3 mM EDTA, 0.1 mg/mL BSA, 0.005% P20; apparent KD from steady-state affinity fits, two titrations
[2] = target: Staphylococcus aureus LexA (S. aureus); test: as above
[3] = target: Staphylococcus aureus LexA (S. aureus); test: SPR; […] (6-1458 nM), 180 s at 30 uL/min, 25 °C; 20 mM HEPES pH 7.4, 150 mM NaCl, 3 mM EDTA, 0.1 mg/mL BSA, 0.005% P20; […]

Row | Substance | Kd [2] [µM] | other results
1 | Bacillus thuringiensis uncharacterized protein M1QNS5 (natural protein) |  | Kd [1]: 0.365 µM
2 | Staphylococcus aureus nucleoid-associated protein HU, purified recombinant (from UniProt Q5HFV0 1-90) (natural protein) | 0.843 | 
3 | gp7 of bacteriophage GIL01 (natural protein) | 0.298 | 
4 | tectiviral gp7 homolog from the phage found in Bacillus cereus HuB13-1 (natural protein) | 0.787 | 
5 | tectiviral gp7 homolog from the phage found in Bacillus cereus VD184 (natural protein) | 0.381 | 
6 | tectiviral gp7 homolog from the phage found in Bacillus thuringiensis serovar aizawai (natural protein) | 0.302 | 
7 | tectiviral gp7 homolog of Bacillus anthracis phage AP50 (natural protein) |  | Kd [3]: 0.446 µM
8 | tectiviral gp7 homolog of Bacillus mycoides VDm034 phage Lima (natural protein) |  | Kd [3]: 0.331 µM
